The nature of this data set: yeast display, Sf9 membrane polyspecificity reagent, FACS + sequencing; frameworks hold sequencing errors. The method in brief: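 A synthetic nanobody library was expressed on Saccharomyces cerevisiae BJ5465 by galactose induction for 36–48 hours. The library was stained for 1 hour at 4 °C with 10% biotinylated, detergent-solubilized Sf9 membrane reagent and enriched with streptavidin microbeads before FACS. Low and high (top ~1%) gates were set on anti-HA fluorescence for expression and streptavidin fluorescence for reagent binding, and each polyreactivity label reflects the gate of origin.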
In the case of “QVQLVESGGGLVQAGGSLRLSCAASVFTFLYYAMGWYRQAPGKERELVAAISSTGGTTYYADSVKGRFTISRDNAKNTVYLQMNSLKPEDTAVYYCAADQGVYRTYWFDYWGQGTQVTVSS”, the “polyreactivity (PSR sort gate)” value was “high polyreactivity”.

With “QVQLVESGGGLVQAGGSLRLSCAASVFTFTVNTMGWYRQAPGKERELVAANSNTGSTKYADSVKGRFTISRDKAKNTLYLQMNSLKPEDTAVFYCAAEPGYYSRPDYRVYRVYYWGQGTQVTVSS”, the “polyreactivity (PSR sort gate)” value is “high polyreactivity”.

For “QVQLVESGGGLVQAGGSLRLSCAASVFTFYLYAMGWDRQAPGKERELVADITKRGGSTDYADSVKGRFTISRDNAKNTVYLQMNSLKPEDTAVYYCAARGPTFGVDYGYWGQGTQVTVSS”, the “polyreactivity (PSR sort gate)” value is listed as “high polyreactivity”.

Turning to “QVQLVESGGGLVQAGGSLRLSCAASVIIFQVYAMGWYRQAAGKERELVAAITRRGASTYYADSVKGRFTISRDNPKNTDYLQMNSLKPEETAVYYFNARAYYRLYKSKLGYWGQGTQVTVSS”, the “polyreactivity (PSR sort gate)” value is “high polyreactivity”.

“QVQLVESGGGLVQAGGSLRLSCAASVIIFRQYAMGWSRQAPGKERELVAAISGSGGTTYYADSVKGRFTISRDNAKNTVYLQMNSLKPEDTAVYYCAADSSSRGRLDYWGQGTQVTVSS”: the “polyreactivity (PSR sort gate)” value is given as “high polyreactivity”.

In the case of “QVQLVESGGGLVQAGGSLRLSCAASVITLFGYTMGWYRQAPGKERELVAAIRRRGVSTYYADSVKGRFTISRDNAKNTVYLQMNSLKPEDTAVYYCAKSLKPYTDYDYWGQGTQVTVSS”, the “polyreactivity (PSR sort gate)” value is reported as “high polyreactivity”.

In the case of “QVQLVESGGGLVQAGGSLRLSCAASVNTFYGYDMGWYRQAPGKEWELVASITLSGDSTYYADSVKGRFTISRDNEKNTVYLQMNSLKPEDTAVYYCAGVYTYPLGYYHYTYAYWGQGTQVTVSS”, the “polyreactivity (PSR sort gate)” value is “low polyreactivity”.

For the sequence “QVQLVESGGGLVQAGGSLRLSCAASVRIFGVYAMGWYRQAPGKERELVAAITSGGSTTYADSVKGRFTISRDNAKNTVYLQMNSLKPEDTAVYYCNKEPQPFFLYGYWGQGTQVTVSS”, the “polyreactivity (PSR sort gate)” value is given as “low polyreactivity”.

As for “QVQLVESGGGLVQAGGSLRLSCAASVRIFPHKAMGWYIQAPGKERELVAAISSNGGSTYYADSVKGRFTISRDNAKNTVYLQMNSLKPEDTAVYYCAKYRYFAGDGDYWGQGTQVTVSS”, the “polyreactivity (PSR sort gate)” value is “low polyreactivity”.

As to “QVQLVESGGGLVQAGGSLRLSCAASVRIFPTNAMGWYRQAPGKEREFVAAITWLGGSTYYADSVKGRFTISRDNAKNTVYLQMNRLKPEDTAVYYCAATGHIVFFRAYDYGYWGQGTQVTVSS”, the “polyreactivity (PSR sort gate)” value was “low polyreactivity”.

Regarding “QVQLVESGGGLVQAGGSLRLSCAASVRIFRFYVMGWYRQAPGKERELVAAISKRGASTSYADSVKGRFTISRDNAKNTVYLQMNSLKPEDTAVYYCAASAKRGEMGYWGQGTQVTVSS”, the “polyreactivity (PSR sort gate)” value is listed as “high polyreactivity”.

With “QVQLVESGGGLVQAGGSLRLSCAASVRIFSINAMGWYRQAPGKERELVAAINSGGSTHYADSVKGRFTISRDNAKNTVYLQMNSLKPEDTAGYYCAARKTVSYFRVRTFDYWGQGTQVTVSS”, the “polyreactivity (PSR sort gate)” value was “low polyreactivity”.

Turning to “QVQLVESGGGLVQAGGSLRLSCAASVRTFGQNTMGWYIQAPGKEREFVAAIDFNGGSTYYADSVKGRFTISRDNAKNTVYLQMNSLKPEDTAVYYCAADIYFYYYGSYDYWGQGTQVTVSS”, the “polyreactivity (PSR sort gate)” value is recorded as “low polyreactivity”.

Turning to “QVQLVESGGGLVQAGGSLRLSCAASVSIFQVYAMGWYRQAPGKERELVAAITWSAGSTYADSVKGRFTISRDNAKNTVYLQMNSLKPEDTAVYYSAAYPYVGYVSFSAYDYWGQGTQVTVSS”, the “polyreactivity (PSR sort gate)” value is on record as “low polyreactivity”.

Regarding “QVQLVESGGGLVQAGGSLRLSCAASVSIFRKNAMGWYRQAPGKERELVAAITYRTGSTYYADSVKGRFTISRDNAKNTVYLQMNSLKPEDTAVYYCAAQTWGSGYGHIGRRRHDYWGQGTQVTVSS”, the “polyreactivity (PSR sort gate)” value is “high polyreactivity”.

As for “QVQLVESGGGLVQAGGSLRLSCAASVSIFYEYTMGWYRQAPGKERELVADITEGDGITYYADSVKGRFTISRDNAKNTVYLQMNSLKPEDTAVYYCNADVVQAVTTHYDYWGQGTQVTVSS”, the “polyreactivity (PSR sort gate)” value is listed as “low polyreactivity”.

Regarding “QVQLVESGGGLVQAGGSLRLSCAASVSTFRTNAMGWYRQPPGKEREMVAAITLDGGSTYYADSVKGRFTISRDNEKNTVYLQMNSLKPEDTAVYYCAADVVSVVYLPFVNGGDYWGQGTQVTVSS”, the “polyreactivity (PSR sort gate)” value is “low polyreactivity”.

Turning to “QVQLVESGGGLVQAGGSLRLSCAASVSTFRWYAMGWYRQAPGKERELVAAISWSGSTTYYADSVKGRFTISRDNAKNTVYLQMNSLKPEDTAVYYCAAEVVFFGWNYDYWGQGTQVTVSS”, the “polyreactivity (PSR sort gate)” value is given as “high polyreactivity”.

On to “QVQLVESGGGLVQAGGSLRLSCAASVSTFVVNAMGWYRQAPGKERELVAAISRSDAITYYADSVKGRFTISRDNAKNTVYLQMNSLKPEDTAVYYCAAELSYRGYPYDYWGQGTQVTVSS”, for which the “polyreactivity (PSR sort gate)” value was “high polyreactivity”.

As to “QVQLVESGGGLVQAGGSLRLSCAASVTIFGDYTMGWYRQAPGKERELVAAITWSAGRTYYADSVKGRFTISRDNAKNTVYLQMNSLKPEDTAVYYCAAQVPEDTETVDYWGQGTQVTVSS”, the “polyreactivity (PSR sort gate)” value was “low polyreactivity”.

In the case of “QVQLVESGGGLVQAGGSLRLSCAASVYGMGWYRQAPGKERELVAAISNGGTTYYADSEKGRFTISRDNAKNTVYLQMNSLKPEDTAVYYCADRSWPGGFIYYYWGQGTQVTVSS”, the “polyreactivity (PSR sort gate)” value is “low polyreactivity”.

Turning to “QVQLVESGGGLVQAGGSLRLSCAASVYTFYWNAMGWYRQAPGKEREFVASFSGTSTYYADSVKGRFTISRDNAKNTVYLQMNSLKPEDTAVYYCNARLTLGPRKYEYWGQGTQVTVSS”, the “polyreactivity (PSR sort gate)” value is reported as “low polyreactivity”.

Take “QVQLVESGGGLVQAGGSLRLSCAASVYTIGLYAMGCYRQAPGKEMELVAAMSWSGGSTYYADSVKGPFTISRDNAKKTVYLQMNSLKPEDTAVYYCAAVPYFSLEMGYWGQGTQVTVSS”: the “polyreactivity (PSR sort gate)” value is “low polyreactivity”.

Consider “QVQLVESGGGLVQAGGSLRLSCAASYYAMGWYRQAPAKERELVASISSGGSTNYADSVKGRFTISRDNAKNTVFFQMNSLKPEDTAVYYCAADVADGVWVKIADEYWGQGTQVTVSS”, for which the “polyreactivity (PSR sort gate)” value is “low polyreactivity”.

Take “QVQLVESGGGLVQAGGSLRLSCAATARIFVRYAMGWYRQAPGKERELVAAISTSGGRTYYADSVKGRFTISRDNAKNTVYLQMNSLKPEDTAVYYCNARIKRPRGVYGGDYWGQGTQVTVSS”: the “polyreactivity (PSR sort gate)” value was “high polyreactivity”.

For “QVQLVESGGGLVQAGGSLRLSCAATGFIFGYYALGGYRQAPGKERELVAAINKNGGSTYYADSVKGRFTISRDNAKNTVYLQMNSLKPEDTAVYYCAARARGYAWTYDYWGQGTQVTVSS”, the “polyreactivity (PSR sort gate)” value is given as “high polyreactivity”.

In the case of “QVQLVESGGGLVQAGGSLRLSCAATGITFYPNDMGWYRQAPGKERELVAAITTNDGDTYYADSVKGRFTISRDNAKNTVYLQMNSLKPEDTAVYYCAADSGSTSEYEYWGQGTQVTVSS”, the “polyreactivity (PSR sort gate)” value was “low polyreactivity”.

Turning to “QVQLVESGGGLVQAGGSLRLSCAATGLIFSRNAMGWYRQAPGKERELVAAISTGGSTYYADSVKGRFTISRDNAKITVYLQMNSLKPEDTAVYYCAAAPGYIYEYWGQGTQVTVSS”, the “polyreactivity (PSR sort gate)” value is on record as “low polyreactivity”.

As to “QVQLVESGGGLVQAGGSLRLSCAATGLIIPFSAMGWDREPPGKDRDLVAAISWSAGSTYYADSVKGRFTISRDNAKNSVYLHMNSLKPEDTAVYYCATDRNPADFYWGQGTQVTVSS”, the “polyreactivity (PSR sort gate)” value is “low polyreactivity”.

Turning to “QVQLVESGGGLVQAGGSLRLSCAATGNTFLWYARGWYRQAPGKERELVAAITWSGGRTYYADSVKGRFTISRDNALYTVYLQMHSLKPEDTAVYYFAADYGYFLGGVYFHKVKFDYWGQGTQVTVSS”, the “polyreactivity (PSR sort gate)” value is reported as “high polyreactivity”.

For “QVQLVESGGGLVQAGGSLRLSCAATGRIFQRNAMGWYRQAPGKERELVAVISKSGGSTYYADSVKGRFTISRDNAKNTVYLQMNSLKPEDTAVYYCATRYFRPGEKYDYWGQGTQVTVSS”, the “polyreactivity (PSR sort gate)” value was “low polyreactivity”.

Take “QVQLVESGGGLVQAGGSLRLSCAATGRTFRIYAMGWYRQAPGKEREFVAAITWSGGRTYYADSVKGRFTISRDNAKNTVYLQMNSLKPEDTAVYYCAADPTYLRTLRFGSYDYWGQGTQVTVSS”: the “polyreactivity (PSR sort gate)” value is “high polyreactivity”.

As to “QVQLVESGGGLVQAGGSLRLSCAATGRTFRPYAMGWYTQAPGKEREMVDAIDSSGTSTYYADSVKGRFTISRDNAKKTVYLQMNSQKPEDTAVYYCAKAWPDHWYSRYDYWGQGTQVTVSS”, the “polyreactivity (PSR sort gate)” value is recorded as “low polyreactivity”.

Regarding “QVQLVESGGGLVQAGGSLRLSCAATGRTFSTYAMGWYRQAPGKERELVAAISSGGGRTYYADSVKGRFTISRDNAKNTVYLQMNSLKPEDTAVYYCAADFLWYIYIIGTSLEFDYWGQGTQVTVSS”, the “polyreactivity (PSR sort gate)” value is on record as “low polyreactivity”.

In the case of “QVQLVESGGGLVQAGGSLRLSCAATGSIFASYAMGWYRQAPGKERELVASITRVDSTNYADSVKGRFTISRDNAKNTVYLQMNSLKPEDTAVYYCAADYYIVLTKSDGLFGSWGQGTQVTVSS”, the “polyreactivity (PSR sort gate)” value was “low polyreactivity”.

Consider “QVQLVESGGGLVQAGGSLRLSCAATGSIFDYNAMGWYTQAPGKERELVAALTSGGSTNYADSVKGRFTISRDNAMNTVYLQMNSLKPEDTAVYYCAADHDYYPSNLDYWGQGTQVTVSS”, for which the “polyreactivity (PSR sort gate)” value is listed as “low polyreactivity”.

Consider “QVQLVESGGGLVQAGGSLRLSCAATGSIFYAYAMGWYRQAPGKERELVAGISGGGSTNYADSVKGRFTISRDNAKNTVYLQMNSLKPEDTAVYYCAADGWLSATYDGLPDSDSWGQGTQVTVSS”, for which the “polyreactivity (PSR sort gate)” value is given as “high polyreactivity”.

With “QVQLVESGGGLVQAGGSLRLSCAATGSIFYQNAMGWYRQAPGKDRELVAAISSRGGRTYYADSVKGRFTISRDNAKNTVYLQMNSLKTEDTAVYYFNAARFPYSKDYDYWGQGNQVTVSS”, the “polyreactivity (PSR sort gate)” value was “high polyreactivity”.

For “QVQLVESGGGLVQAGGSLRLSCAATGSNFGSNAMGWYRQAPGKEMELVAAITESGGDTYYADSVKGRFTISRDNAKNTVYLQMNSLKPEDSAVFYCAARYFGGIVDVSLFREYGSWGQGTQVTVSS”, the “polyreactivity (PSR sort gate)” value is “low polyreactivity”.

In the case of “QVQLVESGGGLVQAGGSLRLSCAATGSTFASYAMGWYIQAPGKERELVAAITNGGSTNYADSVKGRFTISRDNAKNNVYLQMNSLNPEDTAVYYCAAYDGFPRRYDYWGQGTQVTVSS”, the “polyreactivity (PSR sort gate)” value is recorded as “low polyreactivity”.

Consider “QVQLVESGGGLVQAGGSLRLSCAATGSTFGYYAMGWYRQSPGKERELVAAISRSGTSTYYADSVKGRFTISRDNAKNTVYLQMISLKPEDTAVYYCIRYGFNSQDYWGQGTQVTVSS”, for which the “polyreactivity (PSR sort gate)” value was “high polyreactivity”.

(Values after the nanobody polyreactivity screen of Harvey et al. (2022).)
